In US9856300B2, “Dpy-30 binding peptides and methods of use” (Marquette University, priority 2011, dated 2018):
No end group written: not given here.

Legend:
Dpy-30 [1] = target: T1, Dpy-30 (Homo sapiens, UniProt Q9C005); test: Ni-NTA pulldown of GST-tagged RSP3 peptides with His-tagged human Dpy-30 protein; assay type: binding; parameters: made in house; host or cells: E. coli BL21(DE3), co-expressed with the GST-RSP3 peptides; details: full-length human His-Dpy-30 co-expressed with GST-RSP3 peptide
T1 sequence (Q9C005 whole entry, the tested form may be a part): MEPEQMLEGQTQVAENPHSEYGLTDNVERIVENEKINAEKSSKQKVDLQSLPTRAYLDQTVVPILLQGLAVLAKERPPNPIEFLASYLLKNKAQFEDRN
Text: (§1) Based on the phenotypes of RSP3 transgenic strains (FIG. 4), an in vitro approach was taken to test that RSP3269-316 contains a Dpy-30 domain binding site. RIIa-binding AHs are 14-18-a.a. long. Some of AHs are clearly comprised of ΦΦXX repeats in which the first two residues are hydrophobic residues (Φ) positioned to interact with complementary residues at the binding grooves of the RIIa domain (Burns-Hamuro et al., 2003; Kinderman et al., 2006; Sarma et al., 2010), whereas for the other RIIa-binding AHs the repeats are not as evident (Gold et al., 2006; Gaillard et al., 2001). Typical ΦΦXX repeats were noted within the Dpy-30 binding fragment in BIG1 at the trans-Golgi network but were not tested yet (Xia et al., 2010). For RSP3269-316, typical and degenerate ΦΦXX repeats are present throughout this region, thus the precise Dpy-30 binding site was determined objectively by Ni-NTA pulldown. As a control, the His-tagged RIIa domain from RSP7 was co-expressed with the GST-tagged RSP396-180 that harbors AHR at a.a.#161-178 (Gaillard et al., 2001; FIG. 3) and both polypeptides were co-purified by Ni-NTA (FIG. 7A). Various Dpy-30 domain containing RSP2 and RSP23 polypeptides were tested but were not compatible for this assay due to poor expression or precipitation propensity. Therefore we used the His-tagged human Dpy-30 protein for Ni-NTA pulldown instead. As expected, both GST-RSP3245-316 and GST-RSP3269-316 were co-purified with His-Dpy-30 by Ni-NTA (FIGS. 7B and 7C). In contrast, the GST control was not co-purified (FIG. 7D).
The experiments were further conducted on smaller segments within a.a.#269-316. GST-RSP3280-316 and GST-RSP3280-308, but not GST-RSP3280-306, were also pulled down by His-Dpy-30 (FIG. 7E, left panel). […] To ensure that the co-purification occurs through the Dpy-30 domain rather than its flanking sequence, the same experiment was conducted with the Dpy-30 domain only (Dpy-3045-99, Wang et al., 2009). The results from the experiments using Dpy-30 domain alone or full-length Dpy-30 protein were similar (FIG. 7E, right panel). Based on the similar dimensions of the RIIa and Dpy-30 domains (FIG. 1), we tested if the Dpy-30 binding peptide is centered on the 18-a.a. helix at the a.a.#291-308 by mutating V300 in the middle of the region into P, a strategy used to study AHR (Gaillard et al., 2001; Carr et al., 1992). […] RSP3291-308.
For Ni-NTA (Qiagen) affinity co-purification, GST-tagged RSP3 constructs and His-tagged HDpy-30 constructs were co-transformed into BL21(DE3) cells. The recombinant proteins were induced using 1 mM IPTG overnight at 16° C. Following induction, the cell pellet from a 5-ml culture was resuspended in 750 μl lysis buffer and sonicated using Branson digital Sonifier (Emerson Industrial Automation). The sonicated mixtures were centrifuged at 4° C., 12,000 rpm for 25 min. The supernatant was incubated with 100 μl Ni-NTA for 1 hour at room temperature. The matrix was subsequently washed thrice and elution was carried out as instructed by the manufacturer.

RIIa domain from RSP7 = test: Ni-NTA pulldown with His-tagged RIIa domain from RSP7; assay type: binding, Chlamydomonas; details: co-expressed in bacteria
Text: as §1
Based on the structural similarity, we tested for the cross-recognition of His-Dpy-30 and AHR (GST-RSP3g); and RSP7's RIIa and AHD (GST-RSP3280-308) by the described Ni-NTA pulldown assay. […] Thus Dpy-30 that has a deep pocket from an additional α-helix recognizes both AHR and AHD, whereas RSP7's RIIa, as PKA's RII, only binds RSP3's AHR(Gaillard et al., 2001). […]

Dpy-30 D/D (a.a. #49-99) = target: T2, Dpy-30 D/D (a.a. #49-99) (Homo sapiens, UniProt Q9C005); test: Ni-NTA pulldown of GST-hAsh2 peptides with His-Dpy-30 D/D; assay type: binding; details: His-Dpy-30 D/D a.a. #49-99 co-expressed
T2 construct: His-Dpy-30 D/D (a.a. #49-99) was co-expressed with GST-hAsh2593-623; made in house; host or cells: E. coli BL21(DE3)
T2 sequence (Q9C005 49-99): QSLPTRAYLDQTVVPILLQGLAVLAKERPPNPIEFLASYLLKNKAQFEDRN
Text: To differentiate if the interaction is via the Dpy-30 domain or the N-terminal fragment, His-Dpy-30 D/D (a.a. #49-99) was co-expressed with GST-hAsh2593-623 (FIG. 11C). To define the N-terminal end of Dpy-30 D/D binding site in hAsh2, W599 in the first potential ΦΦXX motif was mutated into P to disrupt helicity, an approach to abolish D/D-binding (Carr et al., 1982; Burns-Hamuro et al., 2003). […] Thus, the site that directly binds Dpy-30 D/D resides within hAsh2600-617 that is after W599 and contains four ΦΦXX-like motifs, even though an acidic residue occupies a supposedly hydrophobic position in the last motif, VETE (SEQ ID NO:35). The affinity may be further enhanced by adjacent sequences (Burns-Hamuro et al., 2003; Banky et al., 2003).
(§2) All expression constructs were transformed or co-transformed into BL21(DE3) cells. The colonies were selected based on the antibiotic-resistant gene in each plasmid. The cultures were induced with 1 mM IPTG overnight at 18° C. The cell pellet from a 5-ml culture was resuspended in 750-μl lysis buffer supplemented with Complete Mini EDTA-free protease inhibitor cocktail tablets (Roche) and the suspension was sonicated on ice using Branson digital Sonifier until clarified (Emerson Industrial Automation). The sonicated mixtures were centrifuged at 4° C., 12,000 rpm for 25 min. The supernatant or combinations of supernatants as indicated were incubated with ˜100 μl Ni-NTA (Qiagen or Clontech) or Glutathione Sepharose 4B (Amersham Biosciences) for 1 hour at room temperature. The matrix was subsequently washed as instructed by manufacturers, unless indicated otherwise.
(§3) Bacterial extract, flow through and eluate in 1× Laemmli samples buffer were boiled for 5 min. In general, 10 μl samples were loaded in each lane in 4-20% precast acrylamide gels (Bio-Rad or DGEL Electrosystem, Canada) or 14% manually cast gels.

Dpy-30 [2] = target: T1, Dpy-30; test: Ni-NTA pulldown of GST-hAsh2 peptides with His-Dpy-30; assay type: binding; parameters: Dpy-30 fragments, full length or a.a.#49-99, were amplified using purchased IMAGE cDNA clone #4081996 as a template; made in house; host or cells: E. coli BL21(DE3); key to co-purified with Dpy-30: “+” or “−” indicates if the peptides were or were not evidently co-purified with Dpy-30; “+” or “−” indicates if the peptides were or were not evidently co-purified with Dpy-30; details: GST-fused hAsh2 peptides, Ni-NTA pulldown, Coomassie-stained SDS-PAGE
Text: To test this, we performed pull down assays for His-Dpy-30 and GST-hAsh2593-623. The human Ash2 fragment contains a helix with two typical and three atypical ΦΦXX motifs. The hAsh2 DNA was fused downstream to GST DNA by PCR and the product was cloned into an expression vector. Three clones—#9 and #14 with the expected in-frame fusion and #6 with an out-of-frame fusion—were expressed in bacteria. Their extract was mixed with equal volume of bacterial extract with His-Dpy-30; and the mixture was subjected to Ni-NTA purification. […] Thus hAsh2593-623 interacts with Dpy-30 specifically.
Table 3 illustrates the protein sequences of hAsh2's C-terminal region (hAsh2593-623) and its variants, where “+” or “−” indicates if the peptides were or were not evidently co-purified with Dpy-30. The shorter fusion protein GST-hAsh2593-617 that terminated right after the last possible ΦΦXX-like motif, VETE (SEQ ID NO:35), in the helix was also co-purified with His-Dpy-30 (FIG. 11B, arrow and double arrowheads), no matter expressed separately or co-expressed. Both polypeptides were depleted in the flow through of Ni-NTA matrix (Post in FIG. 11B) and retained in the eluate.
as §2, §3

Substance | co-purification / pulldown with His-Dpy-30 (Dpy-30 [1]) | co-purification with the Dpy-30 domain (Dpy-30 D/D (a.a. #49-99)) | co-purified with Dpy-30 (Dpy-30 [2]) | co-purification / pulldown with His-RIIa from RSP7 (RIIa domain from RSP7)
GST-RSP3280-308: GST-tagged RSP3 fragment a.a. 280-308, the Dpy-30-binding amphipathic helix AHD (PWLKEQAIGYLARGVVARRVVDKLVEDAA; also: GST-tagged (fusion)) | pulled down |  |  | did not significantly pull down
PMSDMGPGAVVEHTLADVLYHVETEVDGRRS [W500P] |  | still co-purified | − | 
PMSDMGWGAVVEHTLAD----------GRRS (PMSDMGWGAVVEHTLADGRRS; also: GST fusion) [Δ610-619, GST-hAsh2593-623 with a.a. #610-619 deleted] |  | abolished the co-purification | − | 
PMSDMGWGAVVEHTLADVLYH------GRRS (PMSDMGWGAVVEHTLADVLYHGRRS; also: GST fusion) [Δ614-619, GST-hAsh2593-623 with VETEVD deleted] |  | abolished the co-purification | − | 

Now from value to substance, other results behind:

co-purification / pulldown with His-Dpy-30 (Dpy-30 [1]) | co-purification with the Dpy-30 domain (Dpy-30 D/D (a.a. #49-99)) | co-purified with Dpy-30 (Dpy-30 [2]) | Substance | co-purification / pulldown with His-RIIa from RSP7 (RIIa domain from RSP7)
not |  |  | GST-RSP3280-306: GST-tagged Chlamydomonas RSP3 fragment a.a. 280-306 (PWLKEQAIGYLARGVVARRVVDKLVED; also: GST tag) | 
pulled down |  |  | GST-RSP3280-316: GST-tagged Chlamydomonas RSP3 fragment a.a. 280-316 (PWLKEQAIGYLARGVVARRVVDKLVEDAAAALAANRS; also: GST tag) | 
